Source: the supplement of paper PMC10201428
± gives the standard deviation of the averaged measurements.

These sequences were tested on VchCAST RNA-guided transposition machinery (E. coli BL21(DE3) host, lacZ target) (assay: relative integration efficiency (T-LR orientation) vs wild-type transposon end (log2 (normalized fold change)); transposon end mutated: left end; higher = more efficient transposition).
Procedure: (§1)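 Pooled, barcoded VchCAST (Tn6677) mini-transposon donor libraries; each variable transposon-end sequence sits in a fixed pDonor mini-transposon context (10-bp barcode and cargo not included). Left- or right-end libraries were co-transformed with pEffector (TniQ-Cascade, TnsABC, lacZ crRNA, T7, 0.1 mM IPTG) into E. coli BL21(DE3) and grown 18 h at 37 C. T-LR and T-RL junction amplicons were sequenced; output/input barcode fold change was normalised to the mean of four wild-type barcodes and log2-transformed. Two biological replicates; zero-count/undetected variants carry floor values (-10 / -15), censored here. Barcode uncoupling by PCR recombination adds noise.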

“AATGTTGTTGATGACCAACGCCCTGTCGCGGGCCGCCGGCGGGCGCCGACTACCAGGCCAACACCCCACCAACGCGCGGTCGCGAGACACCCCACCAACGCCTGGTCGCGGGGGTGTCCGATCTGATTTCAGCAAAACTACTGCAGTAAGAA” and “AATGTTGTTGATGACCAACGCCTGGTCGCGGGGATAATTATTTATAATCAGCAACTTAACCACAAAACAACCATATATTGATATCTCACAAAAACCAACGCCCTGTCGCGGGCTGTGAATCGAGTATTTCAGCAAAACTACTGCAGTAAGAA” cannot be ordered by “relative integration efficiency (log2)” value: under -10 for the first, under -10 for the second.

First: AATGTTGTTGATGCAACCAGCCCTTGATATTTAATAATTATTTATAATCAGCAACTTAACCACAAAACAACCAGCGCGTGATATCTCACAAAACAACCAGCCTGTGATATTTTTGTGAATCGAGTATTTCAGCAAAACTACTGCAGTAAGAA
Second: AATGTTGTTGATGCAACCATAAAGTGATATTTAATAATTATTCAACCATATATTGATATCTCACAAAACAACCATAAGTTGATATTTTTGTGAATCGAGTATTTCAGCAAAACTACTGCAGTAAGAAAGTTACTTCGTGGTATGGGAGGATC
The “relative integration efficiency (log2)” value of the first is lower: under -10 for the first, -5.27 ± 0.11 for the second.

First: AATGTTGTTGATGCAACCATAAAGTGATATTTAATAATTATTTATAATCAGCACAACCATATATTGATATCTCACAAAACAACCATAAGTTGATATTTTTGTGAATCGAGTATTTCAGCAAAACTACTGCAGTAAGAAAGTTACTTCGTGGT
Second: AATGTTGTTGATGCAACCATAAAGTGATATTTGCTAGCATTATACCTAGGACTGAGCTAGCTGTCAACAACCATATATTGATATCTCACAAAACAACCATAAGTTGATATTTTTGTGAATCGAGTATTTCAGCAAAACTACTGCAGTAAGAA
The “relative integration efficiency (log2)” value of the first is higher: -4.94 ± 0.63 for the first, under -10 for the second.

“AATGTTGTTGATGCAACCATAAAGTGCGCGGGCCGCCGGCGGGCGCCGACTACCAGGCCAACACCCCACCAACGCGCGGTCGCGAGACACCCCACCAACGCCTGGTCGCGGGGGTGTCCGATCTGATTTCAGCAAAACTACTGCAGTAAGAA” and “AATGTTGTTGATGCAACCATAAAGTTCGCGGGCCGCCGGCGGGCGCCGACTACCAGGCCAACACCCCACCAACGCGCGGTCGCGAGACACCCCACCAACGCCTGGTCGCGGGGGTGTCCGATCTGATTTCAGCAAAACTACTGCAGTAAGAA” cannot be ordered by “relative integration efficiency (log2)” value: under -10 for the first, under -10 for the second.

“AATGTTGTTGATGCAACCATAAATGTCGCGGGCCGCCGGCGGGCGCCGACTACCAGGCCAACACCCCACCAACGCGCGGTCGCGAGACACCCCACCAACGCCTGGTCGCGGGGGTGTCCGATCTGATTTCAGCAAAACTACTGCAGTAAGAA” and “AATGTTGTTGATGCAACCATACCTGTATATTTAATAATTATTTATAATCAGCAACTTAACCACAAAACAACCATAGCGGTATATCTCACAAAACAACCATACTGGTATATTTTTGTGAATCGAGTATTTCAGCAAAACTACTGCAGTAAGAA” cannot be ordered by “relative integration efficiency (log2)” value: under -10 for the first, under -10 for the second.

“AATGTTGTTGATGCACAACGCCCTGTCGCGGGCCGCCGGCGGGCGCCGACTACCAGGCCAACACCCCACCAACGCGCGGTCGCGAGACACCCCACCAACGCCTGGTCGCGGGGGTGTCCGATCTGATTTCAGCAAAACTACTGCAGTAAGAA” and “AATGTTGTTGATGCCCAACGCCCTGTCGCGGGCCGCCGGCGGGCGCCGACTACCAGGCCAACACCCCACCAACGCGCGGTCGCGAGACACCCCACCAACGCCTGGTCGCGGGGGTGTCCGATCTGATTTCAGCAAAACTACTGCAGTAAGAA” cannot be ordered by “relative integration efficiency (log2)” value: under -10 for the first, under -10 for the second.

In the case of “AATGTTGTTGATGTAATTATCATTTTATGGTTGATAATTATTTATAATCAGCAACTTAACCACAAAACAACCATAAAATGATAATTAACAAAACAACCATAAAATGATAATTATGTGAATCGAGTATTTCAGCAAAACTACTGCAGTAAGAA”, the “relative integration efficiency (log2)” value is reported as under -10.

What follows are sequences tested on VchCAST RNA-guided transposition machinery (E. coli BL21(DE3) host, lacZ target) (assay: relative integration efficiency (T-RL orientation) vs wild-type transposon end (log2 (normalized fold change)); transposon end mutated: left end; higher = more efficient transposition).
Procedure: as §1

In order of rising “relative integration efficiency (log2)” value:
1. AATGTTGTTGATGGTTGGTATTTCACTATAAATATAATTATTTATAATCAGCAACTTAACCACAAAACAACCATATATTGATATCTCACAAAAGTTGGTATTCAACTATAAAATGTGAATCGAGTATTTCAGCAAAACTACTGCAGTAAGAA  -8.45 ± 0.29
2. AATGTTGTTGATGGTTGGTATTTCACTATAAATATAATTATTTATAATCAGCAACTTAACCACAAAAGTTGGTATATAACTATAGAGACAAAACAACCATAAGTTGATATTTTTGTGAATCGAGTATTTCAGCAAAACTACTGCAGTAAGAA  -8.28 ± 1.3
3. AATGTTGTTGATGCAACCATAAAGTGATATTTATTGACAGCTAGCTCAGTCCTAGGTATAATGCTAGCAACCATATATTGATATCTCACAAAACAACCATAAGTTGATATTTTTGTGAATCGAGTATTTCAGCAAAACTACTGCAGTAAGAA  -8.14 ± 0.72
4. AATGTTGTTGATGCAACCATAAAGTGCGCGGGCATAATTATTTATAATCAGCAACTTAACCACAAAACAACCATATATTGCGCGAGAACAAAACAACCATAAGTTGCGCGGGGTGTGAATCGAGTATTTCAGCAAAACTACTGCAGTAAGAA  -7.87 ± 2.2
5. AATGTTGTTGATGCAACCATAAAGTGATATTTAATAATTCGGGCGCCGACTACCAGGCCAACACCCCACCAACGCGCGGTCGCGAGACACCCCACCAACGCCTGGTCGCGGGGGTGTCCGATCTGATTTCAGCAAAACTACTGCAGTAAGAA  -7.09 ± 1
6. AATGTTGTTGATGCAACCATAAAGTGATATTTATTGACGGCTAGCTCAGTCCTAGGTATAGTGCTAGCAACCATATATTGATATCTCACAAAACAACCATAAGTTGATATTTTTGTGAATCGAGTATTTCAGCAAAACTACTGCAGTAAGAA  -6.66 ± 0.33
7. AATGTTGTTGATGGTTGGTATTTCACTATAAATATAATTATTTATAATCAGCAACTTAACCACAAAACAACCATATATTGATATCTCACAAAACAACCATAAGTTGATATTTTTGTGAATCGAGTATTTCAGCAAAACTACTGCAGTAAGAA  -6.55 ± 1.7
8. AATGTTGTTGATGCAACCATAAAGTGATATTTAATAATTATTTCAACCATATATTGATATCTCATAATCAGCAACTTAACCACAAAAACAAAACAACCATAAGTTGATATTTTTGTGAATCGAGTATTTCAGCAAAACTACTGCAGTAAGAA  -5.79 ± 0.8
9. AATGTTGTTGATGCAACCATAAAGTGATATTTATATTCTAAATGTTGATTAATTTGAATCATCATCTCAACCATATATTGATATCTCACAAAACAACCATAAGTTGATATTTTTGTGAATCGAGTATTTCAGCAAAACTACTGCAGTAAGAA  -5.04 ± 1
10. AATGTTGTTGATGTGTTGATCAACCATAAAGTGATATTTAATAATTATTTATAATCAGCAACTTAACCACAAAACAACCATATATTGATATCTCACAAAACAACCATAAGTTGATATTTTTGTGAATCGAGTATTTCAGCAAAACTACTGCA  -4.39 ± 0.52
11. AATGTTGTTGATGCAACCATAAAGTGATATTTAATAATTCAACCATAAAGTGATATTTAACTTAACCCAACCATATATTGATATCTCACAAAACAACCATAAGTTGATATTTTTGTGAATCGAGTATTTCAGCAAAACTACTGCAGTAAGAA  -4.15 ± 0.95
12. AATGTTGTTGATGCAACCATAAAGTGATATTTATACCGTTCGTATACGATACATTATACGAAGTTATCAACCATATATTGATATCTCACAAAACAACCATAAGTTGATATTTTTGTGAATCGAGTATTTCAGCAAAACTACTGCAGTAAGAA  -4.08 ± 1.3
13. AATGTTGTTGATGCAACCATAAAGTGATATTTATATTAATAAATATTAGTCGTTGAATTGGTGTTTTCAACCATATATTGATATCTCACAAAACAACCATAAGTTGATATTTTTGTGAATCGAGTATTTCAGCAAAACTACTGCAGTAAGAA  -3.31 ± 1.4
14. AATGTTGTTGATGTGTTGACAACCATAAAGTGATATTTAATAATTATTTATAATCAGCAACTTAACCACAAAACAACCATATATTGATATCTCACAAAACAACCATAAGTTGATATTTTTGTGAATCGAGTATTTCAGCAAAACTACTGCAG  -2.23 ± 0.63
